One data set relates to O=C(O)C[C@H](O)C(=O)O. The experiment in a line: crystal structure. Type of data set: biochemical, Leishmania major. The conditions noted are these: [4Fe-4S] cluster active site, same binding mode as wild type.
On to LmFH-2-H334A (Leishmania major; H334A), for which the Michaelis-Menten constant (Km) turned out to be 4.6 ± 0.1 mM, the maximum rate (Vmax) is 52 µmol/min/mg, the catalytic constant (kcat) was determined as 57.6 ± 0.4 s⁻¹ and the kcat/Km was found to be 12500 ± 400 M⁻¹ s⁻¹.

Turning to LmFH-2-R421A (Leishmania major; R421A), the Michaelis constant (Km) turned out to be 4.1 ± 0.3 mM, the maximal velocity (Vmax) was found to be 0.13 µmol/min/mg, the kcat is 0.144 ± 0.002 s⁻¹ and the kcat/Km worked out at 35 ± 3 M⁻¹ s⁻¹.

For the compound LmFH-2-R471A (Leishmania major; R471A), the Michaelis-Menten constant (Km) is 4.3 ± 0.2 mM, the maximal velocity (Vmax) is 0.034 µmol/min/mg, the kcat amounted to 0.038 ± 0.001 s⁻¹ and the kcat/Km came out at 9 ± 1 M⁻¹ s⁻¹.

With LmFH-2-T467A (Leishmania major; T467A), the Km is reported as 4.4 ± 0.2 mM, the maximum rate (Vmax) came to 0.047 µmol/min/mg, the kcat was found to be 0.052 ± 0.001 s⁻¹ and the kcat/Km came out at 12 ± 1 M⁻¹ s⁻¹.

The target in another data set is T1, LmFH-2 (cytosolic class I fumarate hydratase) (Leishmania major, UniProt E9AE57).
T1 sequence (E9AE57 1-568): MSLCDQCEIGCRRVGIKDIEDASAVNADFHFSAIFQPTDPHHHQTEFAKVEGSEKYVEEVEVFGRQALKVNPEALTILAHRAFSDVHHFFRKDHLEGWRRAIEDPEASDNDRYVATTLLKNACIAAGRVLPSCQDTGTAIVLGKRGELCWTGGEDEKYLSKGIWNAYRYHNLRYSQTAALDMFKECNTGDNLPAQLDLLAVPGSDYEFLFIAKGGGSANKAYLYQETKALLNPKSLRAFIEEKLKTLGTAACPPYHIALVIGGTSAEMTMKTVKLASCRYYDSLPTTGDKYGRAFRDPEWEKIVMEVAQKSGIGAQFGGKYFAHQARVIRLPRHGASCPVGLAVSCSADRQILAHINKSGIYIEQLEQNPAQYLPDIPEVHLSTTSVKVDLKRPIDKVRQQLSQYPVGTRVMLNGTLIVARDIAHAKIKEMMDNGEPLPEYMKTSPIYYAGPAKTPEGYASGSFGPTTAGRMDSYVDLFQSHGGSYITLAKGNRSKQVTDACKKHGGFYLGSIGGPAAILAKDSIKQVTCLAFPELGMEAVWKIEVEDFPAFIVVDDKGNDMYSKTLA
As to the kind of experiment: crystal structure at […] Å.
Conditions: not given
Format: biochemical.
`O=C(O)CCC(=O)O` [succinate] showed an IC50 of 34.2 ± 1.2 mM.

A further data set has as its target T2, LmFH-2-R173A (Leishmania major, UniProt E9AE57, R173A).
T2 sequence (E9AE57 1-568 R173A): T1 sequence (E9AE57 1-568)
Test: not given
Conditions: not given
For the compound `O=C(O)/C=C/C(=O)O` [fumarate], the Km was 2.6 ± 0.6 mM.

The record behind these values is PMC7065722 (Biochemistry, 2019).
